In article PMC8561747 (Cell host & microbe, 2021):

Molecular target: the molecule itself
Test: SEC

B1: FMNL1_(1–385) (domain or fragment, human, UniProt O95466 1-385, looked up)
chain: MGNAAGSAEQPAGPAAPPPKQPAPPKQPMPAAGELEERFNRALNCMNLPPDKVQLLSQYDNEKKWELICDQERFQVKNPPAAYIQKLKSYVDTGGVSRKVAADWMSNLGFKRRVQESTQVLRELETSLRTNHIGWVQEFLNEENRGLDVLLEYLAFAQCSVTYDMESTDNGASNSEKNKPLEQSVEDLSKGPPSSVPKSRHLTIKLTPAHSRKALRNSRIVSQKDDVHVCIMCLRAIMNYQSGFSLVMNHPACVNEIALSLNNKNPRTKALVLELLAAVCLVRGGHDIILAAFDNFKEVCGEQHRFEKLMEYFRNEDSNIDFMVACMQFINIVVHSVENMNFRVFLQYEFTHLGLDLYLERLRLTESDKLQVQIQAYLDNIFDVG
binding result: binds
